# Experiments:
# [1] = target: complex III2 (CIII2) dimer of S. cerevisiae (S. cerevisiae) (UniProt P08067); experiment: cryo-EM structure; 10.5 uM supercomplex with 126 uM S. cerevisiae cyt. c (~1:12) in 20 mM KCl, 20 mM KH2PO4 pH 7.4, 0.01 % GDN; 3D classification with a mask over the cyt. c region
# [2] = target: S. cerevisiae CIII2CIV1/2 supercomplex (S. cerevisiae) (UniProt P08067)
# [3] = target: S. cerevisiae CIII2CIV1/2 supercomplex (S. cerevisiae) (UniProt P08067); experiment: cryo-EM structure; 10.5 uM supercomplex with 126 uM S. cerevisiae cyt. c (~1:12) in 20 mM KCl, 20 mM KH2PO4 pH 7.4, 0.01 % GDN; 3D classification with a mask over the cyt. c region
stoichiometry N [1],"QH2:O2 oxidoreductase activity (O2 reduction upon addition of QH2) of the supercomplex, cyt. c varied up to ~50 uM, 20 mM KCl [2] [electrons/s]",stoichiometry N (cyt. c per CIII monomer-CIV pair) [3],Substance
2,–,–,complex III2 (CIII2) dimer of S. cerevisiae (from UniProt P08067 31-215; P07143 62-309; P00127 1-147; P22289 1-66)
–,50,2,cytochrome c from S. cerevisiae (from UniProt P00044 1-109) (natural protein)

# From PMC11413003
